# Data from patent publication US20230374144A1 (STAIDSON BEIJING BIOPHARMACEUTICAL, published 2023).
# Residue numbers refer to the chain shown, from its start.
# B1: C27-7-33 (antibody, human IgG4, V domains shown)
# VH: EVQLLESGGGLVQPGGSLRLSCAASGFTLSSYAMHWVRQAPGKGLEYVSGISPSGVSTYYANSVKGRFTISRDNPKNTLFLQMSSLRAEDTAVYYCVRVKVKYRGGMDVWGQGTTVTVSS
# VL: EIVLTQSPGTLSLSPGERATLSCRASQGISSAYLAWYQQKPGQAPRLLIYGTSRRATGIPDRFSGSGSGTDFTLTISRLEPEDFAVYYCQLYGATSVTFGQGTKLEIK
# B2: C27-47-56 (antibody, human IgG4, V domains shown)
# VH: B1 VH with S54T, V56T, V101G, K102A
# VL: B1 VL with G28S, I29V, T95S
# B3: Dupilumab (antibody, V domains shown)
# VH: EVQLVESGGGLEQPGGSLRLSCAGSGFTFRDYAMTWVRQAPGKGLEWVSSISGSGGNTYYADSVKGRFTISRDNSKNTLYLQMNSLRAEDTAVYYCAKDRLSITIRPRYYGLDVWGQGTTVTVSS
# VL: DIVMTQSPLSLPVTPGEPASISCRSSQSLLYSIGYNYLDWYLQKSGQSPQLLIYLGSNRASGVPDRFSGSGSGTDFTLKISRVEAEDVGFYYCMQALQTPYTFGQGTKLEIKR
# B4: C27-6-33 (antibody, human IgG4, V domains shown)
# VH: B1 VH with V56S, V99S, K102R
# VL: B1 VL
# B5: C27-24-56 (antibody, human IgG4, V domains shown)
# VH: B1 VH with S54T, G55S, V56G, K102R
# VL: B1 VL with G28S, I29V, T95S
# B6: C27 (antibody, human IgG4, V domains shown)
# VH: B1 VH with P53S, S54N, V56G, K102G
# VL: ETTLTQSPDTLPLSPGDRASLSCRASQSVSSAYLAWYQQKPGQAPRLLIYGTSRRATGVPGRFSGSGSGTDFTLTISRLEPEDFAVYYCQLYGSSSVTFGQGTKLEIK
# notes: also called parent antibody C27; lead parent antibody
# B7: C27-Y2-Y2 (antibody, human IgG4, V domains shown)
# VH: B1 VH with P53Y, G55S, V56A, K102R
# VL: B1 VL with T5P, I29V, A94S
# B8: C27-36-36 (antibody, human IgG4, V domains shown)
# VH: B1 VH
# VL: B1 VL with G28N, S31T
# B9: C27-55-55 (antibody, human IgG4, V domains shown)
# VH: B1 VH with S54T, V56G, V101G, K102R
# VL: B1 VL with G28N, S31T, A94T, T95S
# B10: C27-82-58 (antibody, human IgG4, V domains shown)
# VH: B1 VH with P53G, S54N, G55S, V56A, V101L
# VL: B1 VL with G28D
# B11: C27-56-56 (antibody, human IgG4, V domains shown)
# VH: B1 VH with G55S, V56T, K102L
# VL: B1 VL with G28S, I29V, T95S
# B12: C27-33-33 (antibody, human IgG4, V domains shown)
# VH: B1 VH with P53S, V56S, K102A
# VL: B1 VL
# B13: C27-78-78 (antibody, human IgG4, V domains shown)
# VH: B1 VH with G55S, V56A, V101S
# VL: B1 VL with G28S, S31T, T95S
# B14: C27-67-67 (antibody, human IgG4, V domains shown)
# VH: B1 VH with S54T, G55S, V56A, V101G, K102R
# VL: B1 VL with I29V, A94R, T95S
# B15: C27-58-58 (antibody, human IgG4, V domains shown)
# VH: B1 VH with G55S, V56N, K102R
# VL: B1 VL with G28D
# B16: C27-54-54 (antibody, human IgG4, V domains shown)
# VH: B1 VH with P53H, V56T, K100R, K102L
# VL: B1 VL with G28D, I29V
# B17: C27-53-53 (antibody, human IgG4, V domains shown)
# VH: B1 VH with P53S, S54N, V56G, K100F, K102R
# VL: B1 VL with G28D, I29A, S31N, A94S, T95S
# B18: C27-52-52 (antibody, human IgG4, V domains shown)
# VH: B1 VH with P53S, V56S, V101P, K102A
# VL: B1 VL with I29V, S31T
# Biological target: T1, human IL-4Rα on cells (human, UniProt P24394 26-825)
# Test: cell-based or functional assay
row,"IC50(nM), inhibition of hIL-13 (20 ng/mL) dependent CD23 upregulation on B cells in human PBMCs",Binder
1,0.179 nM,B1
2,0.698 nM,B2
3,2.8 nM,B3

# Biological target: T1, human IL-4Rα on cells
# Test: cell-based or functional assay
# Remark: another data set of the same source
row,"IC50(nM), inhibition of hIL-4 (1 ng/mL) dependent CD23 upregulation on B cells in human PBMCs",Binder
1,0.0303 nM,B1
2,0.0814 nM,B2
3,0.119 nM,B3

# Biological target: T1, human IL-4Rα on cells
# Test: cell-based or functional assay
# Remark: another data set of the same source
row,"IC50(nM), inhibition of TARC release in human PBMCs induced by hIL-13 (200 ng/mL)",Binder
1,0.0576 nM,B1
2,0.0913 nM,B2
3,0.0323 nM,B3

# Biological target: T1, human IL-4Rα on cells
# Test: cell-based or functional assay
# Remark: another data set of the same source
row,"IC50(nM), neutralization of hIL-13 (4 ng/ml), HEK-Blue IL-4/IL-13 STAT6-SEAP reporter cells",Binder
1,0.0343 nM,B1
2,0.0446 nM,B4
3,0.0966 nM,B2
4,0.0482 nM,B5
5,0.136 nM,B3

# Biological target: T2, recombinant human IL-4Rα (extracellular domain, tagged) (human, UniProt P24394 26-232)
# T2 construct: it is written second here only for want of that; also called hIL-4Rα; not shown: His-tag or other conventionally used tag
# Test: SPR, Biacore T200; antibody (human IgG4) on the sensor chip, human IL-4Rα at 0.625-12.5 nM
# Protocol: The binding affinity of the anti-IL-4Rα antibodies (reformatted as human IgG4) to human IL-4Rα was characterized using Biacore T200 (GE). The full-length anti-IL-4Rα antibodies were stabilized on sensor chip CMS. The affinities for human IL-4Rα at various concentrations were measured. […] Using the SPR technology, the association and dissociation rates were measured, and binding affinity was determined.
Kd,koff,kon,Binder
17.6 nM,0.0127 s⁻¹,719000 M⁻¹ s⁻¹,B6
1.01 nM,0.000134 s⁻¹,134000 M⁻¹ s⁻¹,B1
5.6 nM,0.00078 s⁻¹,139000 M⁻¹ s⁻¹,B7
2.12 nM,0.00017 s⁻¹,80400 M⁻¹ s⁻¹,B4
2.56 nM,0.000351 s⁻¹,137000 M⁻¹ s⁻¹,B8
2.47 nM,0.000379 s⁻¹,154000 M⁻¹ s⁻¹,B9
1.82 nM,0.000195 s⁻¹,107000 M⁻¹ s⁻¹,B2
3.67 nM,0.000557 s⁻¹,152000 M⁻¹ s⁻¹,B10
2.38 nM,0.000201 s⁻¹,84500 M⁻¹ s⁻¹,B11
3.74 nM,0.000447 s⁻¹,119000 M⁻¹ s⁻¹,B12
1.86 nM,0.000173 s⁻¹,92700 M⁻¹ s⁻¹,B5
3.62 nM,0.000416 s⁻¹,115000 M⁻¹ s⁻¹,B13

# Biological target: T3, IL-4R with mouse Fc-tag (human, UniProt P24394 26-232)
# T3 construct: not shown: mouse Fc-tag
# Test: competitive ELISA: antibody dilutions with 0.5 µg/mL IL-4R-mouse Fc on plate-captured biotinylated IL-4, anti-mouse-Fc-HRP
# Protocol: Competitive ELISA: The second assay was designed to identify the anti-IL-4Rα antibodies that were capable of inhibiting the binding of hIL-4 to hIL-4Rα, as measured by competitive ELISA. Briefly, a 96-well plate was coated with 100 μL, 2.5 μg/mL SA (Streptavidin) solution, and incubated overnight at 4° C., followed by washed with TBST. Biotinylated IL-4 with the final concentration of 2 μg/mL was added into the plate and incubated at 37° C. for 1 hour. Then the plate was washed with TBST. The anti-IL-4Rα antibody samples were first diluted to 10 μg/mL, and 1004, of the sample was added to the first row of wells. 10 μg/mL anti-IL-4Rα antibody samples were then serially diluted at a 1:2 ratio and added to each of the remaining rows of wells. 504 of 0.5 μg/mL IL-4R with mouse Fc-tag was added to each well. After incubating for 1 hour at 37° C., the wells were washed with TBST 6 times. 100 µL of anti-mouse-Fc-HRP (1:10,000) was then added to each well and incubated for 1 hour at 37° C. The wells were washed with TBST 6 times before adding 1004/well of TMB, and incubated for 5-10 minutes at 37° C. 2M H₂SO₄ was used to stop the reaction. The ELISA results (OD450) were read, and the binding curves were generated by GraphPad Prism 5 software (GraphPad Software). Reference antibody Dupilumab (Regeneron, anti-IL-4Rα antibody) and AMG317 (Amgen, anti-IL-4Rα antibody) were used as positive controls, Human IgG4, kappa Isotype Control (Cat #HG4K, Sino Biological Inc.) was used as negative control, abbreviated as Human IgG4 in FIG. 1.
row,IC50,Binder
1,0.0582 µg/mL,B1
2,0.0781 µg/mL,B4
3,0.0651 µg/mL,B2
4,0.0632 µg/mL,B5
5,0.0838 µg/mL,B3

# Biological target: T1, human IL-4Rα on cells
# Test: cell-based or functional assay
# Remark: another data set of the same source
row,"IC50(nM), inhibition of IL-4 (2 ng/mL) dependent TF-1 cell proliferation",Binder
1,0.0311 nM,B1
2,0.0509 nM,B2
3,0.253 nM,B3

# Biological target: T1, human IL-4Rα on cells
# Test: cell-based or functional assay
# Remark: another data set of the same source
row,"IC50(nM), inhibition of IL-13 (10 ng/mL) dependent TF-1 cell proliferation",Binder
1,0.0902 nM,B1
2,0.0849 nM,B2
3,0.301 nM,B3

# Biological target: T1, human IL-4Rα on cells
# Test: cell-based or functional assay
# Remark: another data set of the same source
row,"IC50(nM), neutralization of hIL-4 (1.2 ng/ml), HEK-Blue IL-4/IL-13 STAT6-SEAP reporter cells",Binder
1,17.9 nM,B6
2,0.076 nM,B14
3,0.41 nM,B15
4,0.34 nM,B16
5,0.293 nM,B17
6,0.0541 nM,B1
7,0.476 nM,B18
8,0.138 nM,B7
9,0.0537 nM,B4
10,0.125 nM,B8
11,0.0853 nM,B9
12,0.103 nM,B2
13,0.283 nM,B10
14,0.15 nM,B11
15,0.195 nM,B12
16,0.0632 nM,B5
17,0.103 nM,B13
18,0.165 nM,B3

# Biological target: T1, human IL-4Rα on cells
# Test: cell-based or functional assay
# Remark: another data set of the same source
row,"IC50(nM), inhibition of TARC release in human PBMCs induced by hIL-4 (32 ng/mL)",Binder
1,0.916 nM,B1
2,1.2 nM,B2
3,0.63 nM,B3
